Assay results reported in patent publication US20260258115A1 (MAPP BIOPHARMACEUTICAL, published 2026).

Legend:
[1] = target: T1, RSV postfusion F, subtype B (postF trimer) (Respiratory syncytial virus subtype B, UniProt P13843 26-513); experiment: BLI, IgG apparent affinity
T1 construct: also called Postfusion subtype B

[2] = target: RSV F on RSV subtype A virus (RSV-A2) (Respiratory Syncytial Virus, subtype A, …, UniProt P03420 26-574); experiment: cell-based or functional assay
[3] = target: RSV F on recombinant mKate-RSV A2 virus (Respiratory syncytial virus A2, UniProt P03420 26-574); experiment: cell-based or functional assay
[4] = target: RSV F on recombinant mKate-RSV B 18537 virus (Respiratory syncytial virus B 18537, UniProt P13843 26-574); experiment: cell-based or functional assay
[5] = target: RSV fusion glycoprotein (RSV F) on RSV-A2 virus (respiratory syncytial virus, UniProt P03420 26-574); experiment: cell-based or functional assay
[6] = target: RSV postfusion F (postF), F deltaFP (respiratory syncytial virus, UniProt P03420 26-513); experiment: BLI, IgG on sensor, 100 nM antigen
[7] = target: RSV prefusion F (preF), DS-Cav1 (respiratory syncytial virus, UniProt P03420 26-513); experiment: BLI, IgG on sensor, 100 nM antigen

B1: ADI-21065 (antibody, V domains shown)
VH: EVQLLESGGGLVQPGGSLRLSCAASGFTFSSYAMNWVRQAPGKGLEWVSGISGSGESTYYADSVKGRFTISRDSSKNTVYLQMNSLRADDTAVYYCAKDQGYGVVVPAATRALPPRRYGMDVWGQGTTVTVSS
VL: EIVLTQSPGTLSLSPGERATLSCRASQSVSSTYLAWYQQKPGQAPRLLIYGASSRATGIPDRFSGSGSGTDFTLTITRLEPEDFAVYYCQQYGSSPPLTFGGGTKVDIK
[1]
  binding result: no binding

B2: ADI-41816 (antibody, V domains shown)
VH: QVQLVQSGAEVKKPGASVKVSCEASGYTFTDSYIHWVRQAPGQGLEWMGWINPNSGGTNYAQKFQGRVTMTRDTSTSTAFIELSRLRSDDTAVYYSARGVRQQWLVNTGDPDYYFDFWGQGTLVTVSS
VL: SYVLTQPPSVSVSPGQTASITCSGDKLGDKYSCWYQQKPGQSPVLVIYQDYKRPSGIPERFSGSNSGNTATLTISGTQAMDEADYYCQAWDRNAGVFGTGTKLTVL
[2]
  Neutralization IC50 (RSV subtype A): 0.91 µg/mL

B3: ADI-21064 (antibody, V domains shown)
VH: EVQLVESGGEVKKPGASVKVSCKASGYIFSNHGVSWVRQAPGQGLEWMGWISAYNGNAIYAQNLQGRVTLTTDTSTSTAYMELTSLTSDDTAIYYCARESGATAAAVMDYWGQGTLVTVSS
VL: DIVLTQTPLSLPVILGQPASISCRSSQSLVYSDGNTYLTWFQQRPGQSPRRLIYKVSNRDSGVPDRFSGSGSDTDFTLKISRVEAEDVGVYYCMQGIDWPRTFGQGTKVDIK
[1]
  binding result: no binding
[3]
  Neut IC50 (ug/ml) subtype A: 0.03 µg/mL
[4]
  Neut IC50 (ug/ml) subtype B: 0.12 µg/mL

B4: ADI-21081 (antibody, V domains shown)
VH: EVQLLESGGGLVKPGGSLRLSCAASRFAFSNYYMTWIRQAPGKGLEWISNISGGSTFTNYADSVKGRFTISRDNAKNSVHLQMNSLRAEDTAVYYCVREASVAAGTPEGFDIWGQGTMVTVSS
VL: QSVLTQPPSVSGAPGQRVIISCTGSSSNIGAGYDVNWYQQLPGTAPKLLMYGNRNRASGVPDRFSGSKSGTSASLAITGLQAEDEADYYCHSYDSSLGGSVFGGGTKLTVL
notes: also called Ab 326
[1]
  binding result: no binding
[3]
  Neut IC50 (ug/ml) subtype A: 0.1 µg/mL
[4]
  Neut IC50 (ug/ml) subtype B: 0.32 µg/mL

B5: ADI-41451 (antibody, V domains shown)
VH: EVQLVESGGGLVQPGGSLRLSCAAAGFTFNNYEMHWVRQAPGKGLEWVSCVTSSGTATYYADSVKGRFTVSRDNAKKSLQLQMNSLRAEDTAVYYCARELYLGEDYYYGLDVWGQGTTVTVSS
VL: SYELTQPPSVSVSPGQTASISCSGDKLRNKHTCWYQHKSGQSPVLLIYQDNRRPSGIPDRLSGSKSGTTATLTISWTQAMDEAEYYCQAWDSNSAVIFGGGTKLTVL
notes: IgG1; also called Ab 735
[5]
  Neutralization IC50 (RSV subtype A): 0.84 µg/mL
[6]
  Kd: 1.67 nM
[7]
  Kd: 1.82 nM

B6: ADI-41831 (antibody, V domains shown)
VH: EVQLLESGGGLVKPGGSLRLSCAASGFTFSSYAMHWVRQPPGKGLEWVSSISASSSFINYADSVKGRFTISRDGARNSLYLQMNSLRAEDTAVYYCVREDYDSSGYGLHWFDPWGQGTTVTVSS
VL: SYVLTQPPSVSGAPGQRVTISCTGSSSNIGAGYDVHWYQQFPGTAPKLLMYGNTNRPSGVPDRFSGSKSGTSASLAITGLQAEDEADYYCQSYDRSLSGWVFGGGTKLTVL
[2]
  Neutralization IC50 (RSV subtype A): 5.21 µg/mL

B7: ADI-21079 (antibody, V domains shown)
VH: EVQLLESGGGLVKPGGSLRLSCAASGFTFSDYYMSWIRQAPGKGLEWVSNISGGSTYTNYADSVKGRFTISRDNAKNSLYLQMNSLRAEDTAVYYCAREAYGSGNYYNPNWLDPWGQGTLVTVSS
VL: QSVLTQPPSVSGAPGQRVTISCTGSSSNIGAGYDVHWYQQLPGTAPKLLIYGNRNRPSGVPDRFSGSKSGTSASLAITGLQAEDEADYYCQSYDSSLSGSVFGGGTKLTVL
[1]
  binding result: no binding
[3]
  Neut IC50 (ug/ml) subtype A: 0.2 µg/mL
[4]
  Neut IC50 (ug/ml) subtype B: 0.29 µg/mL

B8: ADI-43640 (antibody, V domains shown)
VH: QVQLVQSGGGLVKPGGSLRLSCAASGFTFSSYSMNWVRQAPGKGLEWVSSISSSSSYIYYADSVKGRFTISRDNAKNSLYLQMNSLRAEDTAVYYCAREGRDGYNYNFDYWGQGTLVTVSS
VL: QSVVTQPPSVSGAPGQRVTISCTGSSSNIGAGYDVHWYQQLPGTAPKLLIYGNSNRPSGVPDRFSGSKSGTSASLAITGLQAEDEADYYCQSYDSSLSGVVFGGGTKLTVL
[2]
  Neutralization IC50 (RSV subtype A): > 25 µg/mL

B9: ADI-41832 (antibody, V domains shown)
VH: EVQLVESGGGLVQPGGSLRLSCAASGFTFSKYAMNWVRQAPGKGLEWVSSISDSGDSRYYADSVKGRFTISRDSSKNTLNLQMNSLRAEDTAVYYCAKAGWELFSPQGAFDLWGQGTMVTVSS
VL: EIVMTQSPGTLSLSPGERATLSCRASQSVSSSHLAWYQQKPGQAPRLLIYGASSRDSGIPDRFSGSGSGTDFTLSISRLEPEDFAVYYCQHYGNSPYTFGQGTKVDIK
[2]
  Neutralization IC50 (RSV subtype A): 0.19 µg/mL

B10: ADI-41448 (antibody, V domains shown)
VH: TVQLVESGAEVKSPGSSVRVSCQASGGSSNSYAISWVRQAPGQGLEWMGMISPLFGTTRFSQRFQGRVTITADKSTSTAYMELSSLNSEDTALYYCARGRFDFWSGPTRFYYTMDVWGQGTMVTVSS
VL: QSVLIQPASVSGSPGQSITISCSGTSSDIGGYNYVSWYQQHPGKAPKLLISDVTDRPSGISDRFSGSKSGTSASLTISGLQADDEADYYCTSYTTSSTWVFGGGTKLTVL
notes: IgG1
[5]
  Neutralization IC50 (RSV subtype A): > 25 µg/mL
[6]
  Kd: 0.428 nM
[7]
  Kd: 2.75 nM

B11: ADI-41834 (antibody, V domains shown)
VH: EVQLLESGGRLVQPGRSLRLSCAASGFTVSGSYMSWVRQAPGKGLEWVSVIYIDGGTKYADSVKGRFTISRDNSKNTVYLQMNSLRAEDTAVYYCARDSSLWYRGGDYWGQGTLVTVSS
VL: DIQMTQSPSSLSASVGDRVTITCQANHDISNYLNWYQQKPGKAPKLLIYDASILEAGVPSRFSGSGSGTHFTFTISSLQPEDIATYYCQQFDFRALTFGGGTKVEIK
[2]
  Neutralization IC50 (RSV subtype A): 0.07 µg/mL

B12: ADI-41453 (antibody, V domains shown)
VH: QVQLVQSGAEVRKPGASVKVSCKASGYTFSIYDMNWVRQAPGQGLEWMGWMNPNSGNTGYAQKFQGRVTMTGDTSISTAYMELSSLTSEDTAVYYCAVMYGDYPGYWGQGSLVTVSS
VL: SYELTQPLSVSVALGQTARITCGGNNIGSKSVHWYQQKPGQAPVLVIYRDAKRPSGIPERFSGSNSGNTATLTISGAQAGDEADYYCQVWDSNAWIFGGRTKLTVL
notes: IgG1; also called Ab 737
[5]
  Neutralization IC50 (RSV subtype A): > 25 µg/mL
[6]
  Kd: 0.403 nM
[7]
  Kd: 2.17 nM

B13: ADI-41830 (antibody, V domains shown)
VH: QVQLVQSGPAVKKPGASVKVSCKASGYIFTSYGVSWVRQAPGQGLEWMGWISGYNGNTDYAQKFQGRVTLTVDSSTGTVYMDLRSLRSDDTAIYYCARAPPLPGQVYDGAGSYLLHGYWGQGTLVTVSS
VL: not shown
[2]
  Neutralization IC50 (RSV subtype A): 0.12 µg/mL

B14: ADI-41835 (antibody, V domains shown)
VH: EVQLLESGGGLVQPGGSLRLSCAASGFTFSSYAMNWVRQAPGKGLEWVSIISDSGGSTYYADSVKGRFTISRDNSKNTLYLQMNSLRAEDTAVYYCAKATPLKWELLIGSTPGYYFDYWGQGTTVTVSS
VL: SYELTQLPSVSVSPGQTASITCSGDKLGDKYACWYQQKPGQSPVVIMYQDNKRPSGIPERFSGSNSGNTATLTISGTQAMDEADYYCQAWDSSTGVFGGGTKVTVL
[2]
  Neutralization IC50 (RSV subtype A): 0.45 µg/mL

B15: ADI-41829 (antibody, V domains shown)
VH: EVQLVESGGGLVKPGGSLRLSCAASGFTSSGYNMNWVRQAPGKGLEWVSSISGSSSYIHYADSVKGRFTISRDNAKNSLYLQMNSLRAEDTAVYYCATVGALPGHFDNWGQGTLVTVSS
VL: QAVVTQEPSVSGAPGQRVTISCTGSSSNIGAGYDVHWYQQLPGTAPKLLIYDNTNRPSGVPDRFSGSKSGTSASLAITGLQAEDEADYYCQSYDSRLTYVFGTGTKVTVL
[2]
  Neutralization IC50 (RSV subtype A): 0.12 µg/mL

B16: ADI-21072 (antibody, V domains shown)
VH: QVQLVQSGGGLVKPGGSLRLSCEASGFNFRSYHMSWVRQAPGKGLEWVSSITAGSSYINYADSVKGRFTISRDNAKNSVFLQMNSLSAEDTAVYYCAREGLNMGVGGTWFDPWGQGTLVTVSS
VL: QAVVTQEPSVSGAPGQRVTISCTGSSSNIGAGYDVHWYQQLPGTAPKLLIYGNNNRPSGVPDRFSGSKSATSASLAITGLQADDEADYYCQSYDRSLSGSWVFGTGTKVTVL
[1]
  binding result: no binding
[3]
  Neut IC50 (ug/ml) subtype A: 0.04 µg/mL
[4]
  Neut IC50 (ug/ml) subtype B: 0.33 µg/mL

B17: ADI-21077 (antibody, V domains shown)
VH: QVQLVESGGGLVKPGGSLRLSCVVSGFTFRDYYMSWIRQAPGKGLEWISYISPSSTYTNYADSVRGRFTISRDNAENSLYLQMNSLRAEDTAVYYCARVNIAATGAGGVFLDYWGQGTTVTVSS
VL: QPVLTQPPSVSGAPGQRVTISCAGSSSNIGAGYDVHWYQQLPGTAPKLLIYGNINRPSGVPDRFSGSKSGTSASLAITGLQAEDEADYYCQSYDSSLSGSYVFGTGTKVTVL
[1]
  binding result: no binding
[3]
  Neut IC50 (ug/ml) subtype A: 0.06 µg/mL
[4]
  Neut IC50 (ug/ml) subtype B: 0.06 µg/mL

B18: ADI-41840 (antibody, V domains shown)
VH: QVQLVQSGAEVKKPGSSVKVSCKASGDTFSGYAIYWVRQAPGRGLELMGGIIPILGTSSYAQRFLGRTSFTADESTSTAYMDLSSLTSADTAMYYCARKRVTVPVPFDSWGQGTLVTVSS
VL: EIVMTQSPATLSVSPGERATLSCRASQSVSSNLAWYQQKLGQAPRLLIYGASTRATDIPARFSGSGSGTEFTLTISSLQSEDFVVYYCQQYNNWPWTFGQGTKVEIK
[2]
  Neutralization IC50 (RSV subtype A): > 25 µg/mL

B19: ADI-21075 (antibody, V domains shown)
VH: EVQLVESGGGLVKPGGSLRLSCAASGFSFSNYYMSWVRQAPGKGLEWISYISGGSTYANLADSVKGRFTISRDNTKNSMYLQMTSLRPDDTAVYYCARIHGTHGPFYFDYWGQGTLVTVSS
VL: QSVLTQPPSVSGAPGQRVTISCTGSSSNIGAGYDVHWYQQLPGTAPKLLIHANSNRPSGVPDRFSGSKSGTSASLAITGLQAEDEADYYCQSYDNSLNAYYVFGTGTKLTVL
notes: also called Ab 320
[1]
  binding result: no binding
[3]
  Neut IC50 (ug/ml) subtype A: 0.03 µg/mL
[4]
  Neut IC50 (ug/ml) subtype B: 0.48 µg/mL
